Reference: paper PMC5934816, “Towards development of aptamers that specifically bind to lactate dehydrogenase of Plasmodium falciparum through epitopic targeting”

Legend:
[1] = target: rPvLDH, lactate dehydrogenase (Plasmodium vivax, UniProt Q4PRK9 1-316); assay: ELONA; conditions: protein: recombinant; chain copies: 4
[2] = target: rPfLDH, lactate dehydrogenase (Plasmodium falciparum, UniProt Q71T02 1-316); assay: ELONA; ELONA: 500 ng immobilized protein; aptamer in HMCKN (2 mM HEPES, 0.2 mM MgCl2, 0.2 mM CaCl2, 0.2 mM KCl, 15 mM NaCl, pH 7.4), 2 h, room temperature; washes HMCKN then 25 mM TBS pH 7.6, 0.1% NP-40; conditions: protein: recombinant; chain copies: 4; label: 5'-biotin

Binder GTTCGATTGGATTGTGCCGGAAGTGCTGGCTCGAAC (ssDNA) [pL1] has a Kd [1] of 79.2 ± 12.7 nM.

B1: C7 concatemer control (ssDNA)
DNA: ACTTTGCACATGCTTATTCTTGTCTCCCATGCCTGTTGTGAGCCTCCTAAC
B1: no binding [2]; no binding [1].
